Biological target: T1, His6-cMyc4-tagged VPS33B (human, UniProt Q9H267 1-617)
T1 construct: VPS33B, human, UniProt Q9H267; construct pUPE.02.13-VPS33B; also called pUPE.02.13-VPS33B; recombinant tagged VPS33B; source: HEK293 cells stably expressing Epstein-Barr virus Nuclear Antigen I, co-transfected with VIPAR; in lysate, then co-purified with VIPAR (Streptactin Sepharose, Superdex 200); not shown: His6-cMyc4, N-terminal, kept
T1 sequence (looked up): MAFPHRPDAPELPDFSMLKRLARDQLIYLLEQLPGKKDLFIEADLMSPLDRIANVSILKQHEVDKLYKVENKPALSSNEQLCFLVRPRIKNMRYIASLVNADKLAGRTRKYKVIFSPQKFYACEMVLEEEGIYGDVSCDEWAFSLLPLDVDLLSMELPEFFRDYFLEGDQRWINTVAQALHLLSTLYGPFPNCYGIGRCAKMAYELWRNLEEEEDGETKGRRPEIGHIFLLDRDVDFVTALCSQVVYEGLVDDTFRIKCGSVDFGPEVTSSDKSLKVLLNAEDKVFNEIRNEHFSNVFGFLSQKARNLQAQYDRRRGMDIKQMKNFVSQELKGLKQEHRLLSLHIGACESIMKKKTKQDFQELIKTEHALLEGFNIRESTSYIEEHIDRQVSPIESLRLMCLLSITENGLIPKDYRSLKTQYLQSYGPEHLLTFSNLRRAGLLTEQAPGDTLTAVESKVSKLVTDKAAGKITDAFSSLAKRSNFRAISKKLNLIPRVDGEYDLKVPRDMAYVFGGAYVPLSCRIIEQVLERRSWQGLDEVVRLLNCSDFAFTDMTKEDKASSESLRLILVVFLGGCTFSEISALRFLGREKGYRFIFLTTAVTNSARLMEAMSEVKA
Test: affinity purification with mass spectrometry; His6-StrepII3-VIPAR and His6-cMyc4-VPS33B coexpressed in HEK293 cells; soluble lysate (0.3% NP-40, NaCl to 300 mM) on Streptactin Sepharose, eluted with 2.5 mM desthiobiotin, Superdex 200; purified sample analysed by LC-MS/MS
Settings: partners not purified

B1: His6-StrepII3-tagged VIPAR (natural protein, human, UniProt Q9H9C1 1-493, looked up)
chain: MNRTKGDEEEYWNSSKFKAFTFDDEDDELSQLKESKRAVNSLRDFVDDDDDDDLERVSWSGEPVGSISWSIRETAGNSGSTHEGREQLKSRNSFSSYAQLPKPTSTYSLSSFFRGRTRPGSFQSLSDALSDTPAKSYAPELGRPKGEYRDYSNDWSPSDTVRRLRKGKVCSLERFRSLQDKLQLLEEAVSMHDGNVITAVLIFLKRTLSKEILFRELEVRQVALRHLIHFLKEIGDQKLLLDLFRFLDRTEELALSHYREHLNIQDPDKRKEFLKTCVGLPFSAEDSAHIQDHYTLLERQIIIEANDRHLESAGQTEIFRKHPRKASILNMPLVTTLFYSCFYHYTEAEGTFSSPVNLKKTFKIPDKQYVLTALAARAKLRAWNDVDALFTTKNWLGYTKKRAPIGFHRVVEILHKNNAPVQILQEYVNLVEDVDTKLNLATKFKCHDVVIDTYRDLKDRQQLLAYRSKVDKGSAEEEKIDALLSSSQIRWKN
notes: VIPAR (VIPAS39), human, UniProt Q9H9C1; construct pUPE.02.09-VIPAR; also called pUPE.02.09-VIPAR; recombinant tagged VIPAR; source: HEK293 cells stably expressing Epstein-Barr virus Nuclear Antigen I, co-transfected with VPS33B; in lysate, then purified (Streptactin Sepharose, Superdex 200); not shown: His6-StrepII3, N-terminal, kept
  binding result: binds

Source: article PMC4961739, “Regulation of post-Golgi LH3 trafficking is essential for collagen homeostasis” (Nature Communications, 2016)
